For data set [1], the target named is RNA polymerase core enzyme;chimera sigma32-28 (E. coli;E. coli) (UniProt P0A7Z4+P0A8V2+P0A8T7+P0A800+P0AGB3). Kind of data set: fluorescence polarization. The settings on record: apparent Kd; FP: 10 mM Tris-HCl pH 7.7, 100 mM NaCl, 1 mM DTT, 1% glycerol, 0.025% Tween-20, 5 nM DNA, 10-320 nM holoenzyme, room temperature, 5 min; stopped-flow: 10 mM …. In general terms: Fluorescence polarisation rises when a labelled molecule tumbles more slowly, as on binding a larger partner.

For data set [2], the target named is RNA polymerase core enzyme;chimera sigma32-38 (E. coli;E. coli) (UniProt P0A7Z4+P0A8V2+P0A8T7+P0A800+P0AGB3). The data set is described as follows: fluorescence polarization. Particulars: apparent Kd; FP: 10 mM Tris-HCl pH 7.7, 100 mM NaCl, 1 mM DTT, 1% glycerol, 0.025% Tween-20, 5 nM DNA, 10-320 nM holoenzyme, room temperature, 5 min; stopped-flow: 10 mM ….
For data set [3], the target named is RNA polymerase core enzyme;sigma32 R268A (E. coli;E. coli, UniProt P0A7Z4;P0A8V2;P0A8T7;P0A800;P0AGB3 1-329;1-1342;1-1407;1-91;1-284, |R268A). The data set is described as follows: fluorescence polarization; apparent Kd; FP: 10 mM Tris-HCl pH 7.7, 100 mM NaCl, 1 mM DTT, 1% glycerol, 0.025% Tween-20, 5 nM DNA, 10-320 nM holoenzyme, room temperature, 5 min; stopped-flow: 10 mM Tris-HCl pH 7.7, 20 mM NaCl, 10 mM MgCl2, 1 mM DTT. The settings on record: protein: recombinant;recombinant; tags: ;His tag (pET28a, Ni-NTA); chain copies: 2;1;1;1;1; blunt.

Data set [4] deals with RNA polymerase core enzyme;sigma32 E265A (E. coli;E. coli, UniProt P0A7Z4;P0A8V2;P0A8T7;P0A800;P0AGB3 1-329;1-1342;1-1407;1-91;1-284, |E265A). Described as above. The settings on record: protein: recombinant;recombinant; tags: ;His tag (pET28a, Ni-NTA); chain copies: 2;1;1;1;1; blunt.
Data set [5] concerns the target RNA polymerase core enzyme;sigma32 L253A (E. coli;E. coli, UniProt P0A7Z4;P0A8V2;P0A8T7;P0A800;P0AGB3 1-329;1-1342;1-1407;1-91;1-284, |L253A). Described as above. The settings on record: protein: recombinant;recombinant; tags: ;His tag (pET28a, Ni-NTA); chain copies: 2;1;1;1;1; blunt.
Data set [6] concerns the target RNA polymerase core enzyme;sigma32 (RpoH) wild type (E. coli;E. coli, UniProt P0A7Z4;P0A8V2;P0A8T7;P0A800;P0AGB3 1-329;1-1342;1-1407;1-91;1-284, |). Described as above. The settings on record: protein: recombinant;recombinant, tags: ;His tag (pET28a, Ni-NTA), chain copies: 2;1;1;1;1.
The target of data set [7] is RNA polymerase core enzyme;sigma32 R266A (E. coli;E. coli, UniProt P0A7Z4;P0A8V2;P0A8T7;P0A800;P0AGB3 1-329;1-1342;1-1407;1-91;1-284, |R266A). The description is as above. The settings on record: protein: recombinant;recombinant; tags: ;His tag (pET28a, Ni-NTA); chain copies: 2;1;1;1;1; blunt.
For data set [8], the target named is T1, β′ subunit of E. coli RNAP (E. coli, UniProt P0A8T7 1-1407).
T1 construct: RNA polymerase subunit beta' (RpoC), E. coli; stood in the assay as a subunit of the RNAP core enzyme; A subunit of m2; also called RNAP-β′; RpoC; source: E. coli BL21(DE3), co-expressed from pET28a-rpoA-rpoB-rpoC-rpoZ, purified as part of the RNAP core enzyme
The data set is described as follows: cryo-EM structure; σ32-RPo: RNAP core enzyme, σ32 and dnaKp1 promoter scaffold mixed at 1:4:1.2 molar ratios, 4 °C overnight, purified on Superdex 200; 20 mM Tris-HCl pH 8.0, 0.1 M NaCl, 1% glycerol, 1 mM DTT; promoter DNA present. Particulars: both partners purified.

Data set [9] deals with T2, β subunit of E. coli RNAP (E. coli, UniProt P0A8V2 2-1342).
T2 construct: RNA polymerase subunit beta (RpoB), E. coli; stood in the assay as a subunit of the RNAP core enzyme; A subunit of m2; also called RpoB; bears the β-flap tip helix (βFTH); source: E. coli BL21(DE3), co-expressed from pET28a-rpoA-rpoB-rpoC-rpoZ, purified as part of the RNAP core enzyme
The data set is described as above. The settings on record: both partners purified.

Here are results for four molecules from paper PMC10216364, “Structural Insight into the Mechanism of σ32-Mediated Transcription Initiation of Bacterial RNA Polymerase” (Biomolecules, 2023).

As to “CCTTGAAGACGTGGTTTACGACCCCATTTAGTAG / GGGGTCGTAAACCACGTCTTCAAGG [long promoter DNA, -35 to -10 bubble]”, the Kd in data set [1] is 9.22 nM; in data set [2] it was 8.34 nM.

B1: short -35 element DNA (dsDNA)
DNA 1: CCTTGAAGACGTGG
DNA 2: CCACGTCTTCAAGG
As for B1, the Kd came to 46.7 nM in data set [3]; 45.9 nM in data set [4]; 38.8 nM in [5]; 28.4 nM in data set [6] (blunt); 54.9 nM in data set [7].

B2: E. coli σ^32 (natural protein)
chain: MTDKMQSLALAPVGNLDSYIRAANAWPMLSADEERALAEKLHYHGDLEAAKTLILSHLRFVVHIARNYAGYGLPQADLIQEGNIGLMKAVRRFNPEVGVRLVSFAVHWIKAEIHEYVLRNWRIVKVATTKAQRKLFFNLRKTKQRLGWFNQDEVEMVARELGVTSKDVREMESRMAAQDMTFDLSSDDDSDSQPMAPVLYLQDKSSNFADGIEDDNWEEQAANRLTDAMQGLDERSQDIIRARWLDEDNKSTLQELADRYGVSAERVRQLEKNAMKKLRAAIEA
notes: RNA polymerase sigma factor σ32 (RpoH), E. coli; the N-terminus was not modelled in the structure; the tag and its end are not described; also called sigma 32; RpoH; source: E. coli BL21(DE3), plasmid pET28a-rpoH, purified (Ni-NTA, HiTrap Heparin)
In the case of B2, the binding result in data set [8] and in data set [9] was “binds” each time.

B3: long promoter DNA, -35 to -10 bubble (mixed)
DNA 1: CCTTGAAGACGTGGTTTACGACCCCATTTAGTAG
DNA 2: GGGGTCGTAAACCACGTCTTCAAGG
With B3, the Kd in data set [6] (25 bp duplex, 3' overhang 9 nt on S5 (fork-junction type)) came out at 14.9 nM.
